Data: IntAct's records for PubMed 31515488

B1: Zyxin (Homo sapiens), Q15942 (parent)
chain: MAAPRPSPAISVSVSAPAFYAPQKKFGPVVAPKPKVNPFRPGDSEPPPAPGAQRAQMGRVGEIPPPPPEDFPLPPPPLAGDGDDAEGALGGAFPPPPPPIEESFPPAPLEEEIFPSPPPPPEEEGGPEAPIPPPPQPREKVSSIDLEIDSLSSLLDDMTKNDPFKARVSSGYVPPPVATPFSSKSSTKPAAGGTAPLPPWKSPSSSQPLPQVPAPAQSQTQFHVQPQPQPKPQVQLHVQSQTQPVSLANTQPRGPPASSPAPAPKFSPVTPKFTPVASKFSPGAPGGSGSQPNQKLGHPEALSAGTGSPQPPSFTYAQQREKPRVQEKQHPVPPPAQNQNQVRSPGAPGPLTLKEVEELEQLTQQLMQDMEHPQRQNVAVNELCGRCHQPLARAQPAVRALGQLFHIACFTCHQCAQQLQGQQFYSLEGAPYCEGCYTDTLEKCNTCGEPITDRMLRATGKAYHPHCFTCVVCARPLEGTSFIVDQANRPHCVPDYHKQYAPRCSVCSEPIMPEPGRDETVRVVALDKNFHMKCYKCEDCGKPLSIEADDNGCFPLDGHVLCRKCHTARAQT
B2: Notch homolog 2 N-terminal-like protein A (Homo sapiens), Q7Z3S9 (parent)
chain: MCVTYHNGTGYCKCPEGFLGEYCQHRDPCEKNRCQNGGTCVAQAMLGKATCRCASGFTGEDCQYSTSHPCFVSRPCLNGGTCHMLSRDTYECTCQVGFTGKECQWTDACLSHPCANGSTCTTVANQFSCKCLTGFTGQKCETDVNECDIPGHCQHGGTCLNLPGSYQCQCLQGFTGQYCDSLYVPCAPSPCVNGGTCRQTGDFTFECNCLPETVRRGTELWERDREVWNGKEHDEN
partner: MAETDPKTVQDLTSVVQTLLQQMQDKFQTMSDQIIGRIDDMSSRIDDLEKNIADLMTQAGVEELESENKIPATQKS
B3: Fructose-1,6-bisphosphatase 1 (Homo sapiens), P09467 (parent)
chain: MADQAPFDTDVNTLTRFVMEEGRKARGTGELTQLLNSLCTAVKAISSAVRKAGIAHLYGIAGSTNVTGDQVKKLDVLSNDLVMNMLKSSFATCVLVSEEDKHAIIVEPEKRGKYVVCFDPLDGSSNIDCLVSVGTIFGIYRKKSTDEPSEKDALQPGRNLVAAGYALYGSATMLVLAMDCGVNCFMLDPAIGEFILVDKDVKIKKKGKIYSLNEGYARDFDPAVTEYIQRKKFPPDNSAPYGARYVGSMVADVHRTLVYGGIFLYPANKKSPNGKLRLLYECNPMAYVMEKAGGMATTGKEAVLDVIPTDIHQRAPVILGSPDDVLEFLKVYEKHSAQ
B4: Tuftelin-interacting protein 11 (Homo sapiens), Q9UBB9 (parent)
chain: MSLSHLYRDGEGRIDDDDDERENFEITDWDLQNEFNPNRQRHWQTKEEATYGVWAERDSDDERPSFGGKRARDYSAPVNFISAGLKKGAAEEAELEDSDDEEKPVKQDDFPKDFGPRKLKTGGNFKPSQKGFAGGTKSFMDFGSWERHTKGIGQKLLQKMGYVPGRGLGKNAQGIINPIEAKQRKGKGAVGAYGSERTTQSMQDFPVVDSEEEAEEEFQKELSQWRKDPSGSKKKPKYSYKTVEELKAKGRISKKLTAPQKELSQVKVIDMTGREQKVYYSYSQISHKHNVPDDGLPLQSQQLPQSGKEAKAPGFALPELEHNLQLLIDLTEQEIIQNDRQLQYERDMVVNLFHELEKMTEVLDHEERVISNLSKVLEMVEECERRMQPDCSNPLTLDECARIFETLQDKYYEEYRMSDRVDLAVAIVYPLMKEYFKEWDPLKDCTYGTEIISKWKSLLENDQLLSHGGQDLSADAFHRLIWEVWMPFVRNIVTQWQPRNCDPMVDFLDSWVHIIPVWILDNILDQLIFPKLQKEVENWNPLTDTVPIHSWIHPWLPLMQARLEPLYSPIRSKLSSALQKWHPSDSSAKLILQPWKDVFTPGSWEAFMVKNIVPKLGMCLGELVINPHQQHMDAFYWVIDWEGMISVSSLVGLLEKHFFPKWLQVLCSWLSNSPNYEEITKWYLGWKSMFSDQVLAHPSVKDKFNEALDIMNRAVSSNVGAYMQPGARENIAYLTHTERRKDFQYEAMQERREAENMAQRGIGVAASSVPMNFKDLIETKAEEHNIVFMPVIGKRHEGKQLYTFGRIVIYIDRGVVFVQGEKTWVPTSLQSLIDMAK
partner: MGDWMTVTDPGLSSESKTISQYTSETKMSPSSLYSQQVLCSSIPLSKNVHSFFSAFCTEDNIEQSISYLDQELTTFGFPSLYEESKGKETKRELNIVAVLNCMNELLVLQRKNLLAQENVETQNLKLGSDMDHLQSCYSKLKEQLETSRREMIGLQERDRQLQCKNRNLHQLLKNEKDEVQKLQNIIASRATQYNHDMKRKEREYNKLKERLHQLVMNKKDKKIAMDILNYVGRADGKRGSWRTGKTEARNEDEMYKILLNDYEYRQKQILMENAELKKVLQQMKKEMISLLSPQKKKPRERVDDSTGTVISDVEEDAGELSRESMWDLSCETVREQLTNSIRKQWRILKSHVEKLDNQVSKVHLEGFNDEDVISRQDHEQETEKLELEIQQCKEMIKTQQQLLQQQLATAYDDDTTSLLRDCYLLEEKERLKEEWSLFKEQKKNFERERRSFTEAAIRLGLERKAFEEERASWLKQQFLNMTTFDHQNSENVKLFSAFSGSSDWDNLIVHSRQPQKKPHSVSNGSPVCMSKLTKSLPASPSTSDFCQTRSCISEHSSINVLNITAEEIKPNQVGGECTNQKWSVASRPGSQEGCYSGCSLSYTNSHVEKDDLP
B5: RUN and FYVE domain-containing protein 1 (Homo sapiens), Q96T51-2 (parent)
chain: MMEERANLMHMMKLSIKVLLQSALSLGRSLDADHAPLQQFFVVMEHCLKHGLKVKKSFIGQNKSFFGPLELVEKLCPEASDIATSVRNLPELKTAVGRGRAWLYLALMQKKLADYLKVLIDNKHLLSEFYEPEALMMEEEGMVIVGLLVGLNVLDANLCLKGEDLDSQVGVIDFSLYLKDVQDLDGGKEHERITDVLDQKNYVEELNRHLSCTVGDLQTKIDGLEKTNSKLQEELSAATDRICSLQEEQQQLREQNELIRERSEKSVEITKQDTKVELETYKQTRQGLDEMYSDVWKQLKEEKKVRLELEKELELQIGMKTEMEIAMKLLEKDTHEKQDTLVALRQQLEEVKAINLQMFHKAQNAESSLQQKNEAITSFEGKTNQVMSSMKQMEERLQHSERARQGAEERSHKLQQELGGRIGALQLQLSQLHEQCSSLEKELKSEKEQRQALQRELQHEKDTSSLLRMELQQVEGLKKELRELQDEKAELQKICEEQEQALQEMGLHLSQSKLKMEDIKEVNQALKGHAWLKDDEATHCRQCEKEFSISRRKHHCRNCGHIFCNTCSSNELALPSYPKPVRVCDSCHTLLLQRCSSTAS
partner: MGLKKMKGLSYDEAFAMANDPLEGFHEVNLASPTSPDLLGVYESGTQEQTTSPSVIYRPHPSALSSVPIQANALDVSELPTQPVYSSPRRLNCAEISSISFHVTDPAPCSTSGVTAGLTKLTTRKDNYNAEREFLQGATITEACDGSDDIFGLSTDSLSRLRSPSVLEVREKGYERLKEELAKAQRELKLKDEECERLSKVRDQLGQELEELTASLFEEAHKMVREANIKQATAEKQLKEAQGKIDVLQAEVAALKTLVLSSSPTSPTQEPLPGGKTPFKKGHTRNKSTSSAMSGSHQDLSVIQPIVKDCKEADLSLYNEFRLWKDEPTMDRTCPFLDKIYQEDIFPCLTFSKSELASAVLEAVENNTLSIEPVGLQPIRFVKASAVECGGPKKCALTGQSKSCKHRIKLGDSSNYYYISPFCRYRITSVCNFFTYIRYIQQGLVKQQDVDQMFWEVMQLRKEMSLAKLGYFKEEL
B6: Isoform 1 of Myotubularin-related protein 9 (Homo sapiens), Q96QG7-1 (parent)
chain: MEFAELIKTPRVDNVVLHRPFYPAVEGTLCLTGHHLILSSRQDNTEELWLLHSNIDAIDKRFVGSLGTIIIKCKDFRIIQLDIPGMEECLNIASSIEALSTLDSITLMYPFFYRPMFEVIEDGWHSFLPEQEFELYSSATSEWRLSYVNKEFAVCPSYPPIVTVPKSIDDEALRKVATFRHGGRFPVLSYYHKKNGMVIMRSGQPLTGTNGRRCKEDEKLINATLRAGKRGYIIDTRSLNVAQQTRAKGGGFEQEAHYPQWRRIHKSIERYHILQESLIKLVEACNDQTHNMDRWLSKLEASNWLTHIKEILTTACLAAQCIDREGASILIHGTEGTDSTLQVTSLAQIILEPRSRTIRGFEALIEREWLQAGHPFQQRCAQSAYCNTKQKWEAPVFLLFLDCVWQILRQFPCSFEFNENFLIMLFEHAYASQFGTFLGNNESERCKLKLQQKTMSLWSWVNQPSELSKFTNPLFEANNLVIWPSVAPQSLPLWEGIFLRWNRSSKYLDEAYEEMVNIIEYNKELQAKVNILRRQLAELETEDGMQESP
partner: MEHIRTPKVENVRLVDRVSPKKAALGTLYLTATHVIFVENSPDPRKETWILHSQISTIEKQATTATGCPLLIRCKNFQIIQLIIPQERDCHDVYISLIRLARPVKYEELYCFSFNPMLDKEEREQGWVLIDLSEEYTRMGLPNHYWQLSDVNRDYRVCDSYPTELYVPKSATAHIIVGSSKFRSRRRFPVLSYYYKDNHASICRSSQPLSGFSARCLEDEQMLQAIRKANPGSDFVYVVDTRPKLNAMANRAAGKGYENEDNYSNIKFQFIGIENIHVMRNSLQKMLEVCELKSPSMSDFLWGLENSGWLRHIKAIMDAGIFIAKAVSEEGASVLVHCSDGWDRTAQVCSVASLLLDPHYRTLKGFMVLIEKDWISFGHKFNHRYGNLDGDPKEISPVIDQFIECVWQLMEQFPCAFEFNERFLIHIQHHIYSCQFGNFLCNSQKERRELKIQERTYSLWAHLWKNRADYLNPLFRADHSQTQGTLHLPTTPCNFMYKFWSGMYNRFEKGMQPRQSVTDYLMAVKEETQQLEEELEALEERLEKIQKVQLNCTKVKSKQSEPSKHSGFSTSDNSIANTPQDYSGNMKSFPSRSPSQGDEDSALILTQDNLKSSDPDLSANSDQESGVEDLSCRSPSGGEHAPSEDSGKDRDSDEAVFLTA
B7: Beta-taxilin (Homo sapiens), Q8N3L3 (parent)
chain: MEANHSEQLSAERQSTPPGDSSSLPSHNGLEKEDGQDSPTPVQPPEKEASVHPDISEELNRQLEDIINTYGSAASTAGKEGSARASEQPENAESPDNEDGDCEETTEEAGREPVASGEPPTVKEPVSNKEQKLEKKILKGLGKEANLLMQNLNKLQTPEEKFDFLFKKYAELLDEHRTEQKKLKLLQKKQVQIQKEKDQLQGEHSRAILARSKLESLCRELQRHNKTLKEEALQRAREEEEKRKEITSHFQSTLTDIQGQIEQQSERNMKLCQENTELAEKLKSIIDQYELREEHLDKIFKHRELQQKLVDAKLEQAQEMMKEAEERHKREKEYLLNQAAEWKLQAKVLKEQETVLQAQLTLYSGRFEEFQSTLTKSNEVFATFKQEMDKTTKKMKKLEKDTATWKARFENCNKALLDMIEEKALRAKEYECFVMKIGRLENLCRALQEERNELHKKIRDAEISEKDDQSQHNSDEEPESNVSVDQEIDAEEVNSVQTAVKNLATAFMIIHHPESTPHQSKETQPEIGSSQESADAALKEPEQPPLIPSRDSESPLPPLTPQAEAEGGSDAEPPSKASNSPAGLGAETQCEGLPVGAQADQASWKPEAEASGQAPQAPTEASLQKMEADVPAPACAAEEHVAAMVPACEPSRQPPRAAAEELPVGASAGPQPRNVADTNLEGVD
partner: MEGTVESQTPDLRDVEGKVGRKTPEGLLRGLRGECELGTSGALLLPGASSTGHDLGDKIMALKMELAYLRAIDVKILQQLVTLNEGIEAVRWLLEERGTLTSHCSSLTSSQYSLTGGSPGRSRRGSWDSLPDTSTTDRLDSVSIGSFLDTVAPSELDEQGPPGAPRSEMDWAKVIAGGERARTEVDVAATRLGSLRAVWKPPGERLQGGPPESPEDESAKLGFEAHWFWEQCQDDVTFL

Variants of: B1
Conditions: with pf21a_human PHF21A

Row | effect of a mutation on the interaction | Variant
1 | with no effect | R563Q
2 | with no effect | R489W

Variants of: B2
Conditions: with hsbp1_human HSBP1, O75506

Row | effect of a mutation on the interaction | Variant
3 | with no effect | A115T
4 | with no effect | R74Q

Variants of: B3
Conditions: with fxr2_human FXR2, P51116

Row | effect of a mutation on the interaction | Variant
5 | disrupting interaction strength | G260R

Variants of: B4
Conditions: with adip_human SSX2IP

Row | effect of a mutation on the interaction | Variant
6 | with no effect | S688L
7 | with no effect | R8Q

Variants of: B5
Conditions: with rab3i_human RAB3IP

Row | effect of a mutation on the interaction | Variant
8 | with no effect | C159F

Variants of: B6
Conditions: with mtmr7_human MTMR7, Q9Y216

Row | effect of a mutation on the interaction | Variant
9 | with no effect | F127I

Variants of: B6
Conditions: with mtmr7_human MTMR7, Q9Y216
Remark: another data set of the same source

Row | effect of a mutation on the interaction | Variant
10 | with no effect | S126C

Variants of: B7
Conditions: with lura1_human LURAP1, Q96LR2

Row | effect of a mutation on the interaction | Variant
11 | with no effect | T361A
12 | with no effect | T523I
